This is an account of results in US20110105397A1, “METHOD FOR TREATING HEART FAILURE WITH STRESSCOPIN-LIKE PEPTIDES” (priority 2009, published 2011).

For experiment [1], the target named is T1, human corticotrophin releasing hormone receptor type 2 (CRHR2) (human) (UniProt Q13324).
T1 sequence (looked up): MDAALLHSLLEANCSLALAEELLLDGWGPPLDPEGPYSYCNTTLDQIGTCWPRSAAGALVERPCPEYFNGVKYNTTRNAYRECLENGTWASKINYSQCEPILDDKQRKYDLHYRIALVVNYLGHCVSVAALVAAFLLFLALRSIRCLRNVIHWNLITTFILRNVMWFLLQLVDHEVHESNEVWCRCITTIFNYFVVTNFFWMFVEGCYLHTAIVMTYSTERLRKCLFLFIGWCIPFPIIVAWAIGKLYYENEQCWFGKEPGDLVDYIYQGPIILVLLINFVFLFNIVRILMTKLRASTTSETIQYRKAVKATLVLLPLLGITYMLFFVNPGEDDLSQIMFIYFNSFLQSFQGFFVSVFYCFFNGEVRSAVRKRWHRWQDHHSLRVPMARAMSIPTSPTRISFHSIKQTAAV
Briefly: cell-based or functional assay.

In experiment [2] the target is T1, human corticotrophin releasing hormone receptor type 2 (CRHR2) (human). Briefly: radioligand competition against [125I]-anti-sauvagine-30, membranes of SK-N-MC cells with human CRHR2. For orientation: Displacement assays read how much labelled ligand stays bound in the presence of the test substance.
The target of experiment [3] is T2, human corticotrophin releasing hormone receptor type 1 (CRHR1) (human, UniProt P34998 24-415).
T2 construct: whole, on cells; cAMP assay on whole cells; radioligand assay on cell membranes; also called h-CRHR1; CRH receptor type 1
T2 sequence (looked up): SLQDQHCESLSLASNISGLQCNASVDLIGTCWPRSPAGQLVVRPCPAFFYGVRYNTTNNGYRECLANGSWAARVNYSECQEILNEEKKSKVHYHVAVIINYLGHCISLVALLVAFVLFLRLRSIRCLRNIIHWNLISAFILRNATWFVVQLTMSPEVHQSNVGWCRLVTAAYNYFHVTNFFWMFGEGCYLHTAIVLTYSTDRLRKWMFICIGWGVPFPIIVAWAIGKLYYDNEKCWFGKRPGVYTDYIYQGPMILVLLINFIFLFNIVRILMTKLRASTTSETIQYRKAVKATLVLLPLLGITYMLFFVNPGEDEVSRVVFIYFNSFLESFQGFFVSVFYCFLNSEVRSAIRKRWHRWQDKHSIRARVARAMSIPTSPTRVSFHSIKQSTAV
In words: radioligand competition against [125I]-(Tyr0)-sauvagine, CRHR1 assay; ND = Not detectable.

Values joined by “and” are separate entries in the source; they are usually repeats but may differ in a detail not shown here. Equal values may be shown once. Where no end group is shown, it is not given here.

In the case of HPGSRIVLSLDVPIGLLQILLEQARARAAREQATTNARILARV-NH2 (also called h-SRP) [human stresscopin related peptide], the pA50 in experiment [1] is 9.32 -log10(M) and 9.58 -log10(M) and 9.23 -log10(M). In experiment [2], the pKI was 7.57 -log10(M). In experiment [3], the binding result was “no binding”.
